# Experimental data published in patent US20190382481A1 (Janssen / Centocor, published 2019).
# B1: C33B909 (antibody, V domains shown)
# VH: EVQLVESGGGLVQPGRSLRLSCVASGFTFDDYAIHWVRQAPGKGLEWVSGLSWNGGNIGYADSVKGRFTISRDNAKNSLYLQMNSLKTEDTAFYYCTKDTPYGDYFDYWGQGTLVTVSS
# VL: DIQMTQSPSSVWASVGDRVTITCRASQGISSWLAWYQQQPGKAPNLLIYRSSSLQSGVPSRFSGSGSGTDFTLTISSLQPEDFATYYCQQDNSFPYTFGQGTKLEIKR
# notes: OMNIMouse campaign; also called C33H249/C33L115
# What was measured:
# [1] = target: T1, Human CD33 full length (over-expressed on transduced HEK293F cells) (human, UniProt P20138 18-364); experiment: flow cytometry, HEK293F cells expressing human CD33
# T1 construct: also called huCD33; human CD33 expressing cells
# Procedure: (§1) The purified antibodies were assessed for binding to stably transfected HEK293F cells expressing human CD33 or cyno CD33 (generation described above) along with the parental HEK293F as negative control. Cells were harvested from tissue culture flasks using non-enzymatic dissociation buffer (Thermo Scientific). The flasks were rinsed twice with PBS and dissociation buffer was added to the flask, and the flask was incubated for 10 minutes at 37° C. until the cells became non-adherent. The cells were centrifuged at 300 g for 5 minutes and resuspended at 1.0×10⁶ cells/ml in staining buffer (Becton Dickinson; Franklin Lakes, N.J.). 50,000 cells/well of each cell type was plated in 50 μl of staining buffer in round bottom plates (Becton Dickinson). 50 μl of 2× concentration test mAb or isotype control was added at 3 dilutions and zero (120 nM, 12 nM, and 1.2 nM and 0 nM), and the resultant solution was incubated 30 min at 4° C. […] 30 ul running buffer containing Sytox Green live/dead dye (ThermoFisher) was added to all wells with cells and the plates were read on an iQue IntelliCyt flow cytometer. […] Antibody binding was assessed by the mean fluorescence intensity in the AF647 channel. […]
# [2] = target: T2, Cyno CD33 full length (over-expressed on transduced HEK293F / HEK 293T cells) (cyno); experiment: flow cytometry, HEK293F cells expressing cyno CD33
# T2 construct: also called cyCD33; cyno CD33 expressing cells
# Procedure: as §1
# T1 sequence (P20138 18-364 limits assumed): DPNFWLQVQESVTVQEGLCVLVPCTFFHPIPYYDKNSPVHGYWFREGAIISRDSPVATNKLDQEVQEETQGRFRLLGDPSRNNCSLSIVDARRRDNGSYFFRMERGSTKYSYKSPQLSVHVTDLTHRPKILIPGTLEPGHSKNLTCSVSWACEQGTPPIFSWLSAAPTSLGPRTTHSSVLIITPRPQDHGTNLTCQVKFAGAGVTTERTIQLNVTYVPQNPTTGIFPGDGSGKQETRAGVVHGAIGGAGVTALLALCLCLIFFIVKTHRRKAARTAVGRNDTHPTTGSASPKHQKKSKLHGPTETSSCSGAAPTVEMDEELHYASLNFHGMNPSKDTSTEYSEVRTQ
# T2 sequence (chain, as listed by the source limits assumed): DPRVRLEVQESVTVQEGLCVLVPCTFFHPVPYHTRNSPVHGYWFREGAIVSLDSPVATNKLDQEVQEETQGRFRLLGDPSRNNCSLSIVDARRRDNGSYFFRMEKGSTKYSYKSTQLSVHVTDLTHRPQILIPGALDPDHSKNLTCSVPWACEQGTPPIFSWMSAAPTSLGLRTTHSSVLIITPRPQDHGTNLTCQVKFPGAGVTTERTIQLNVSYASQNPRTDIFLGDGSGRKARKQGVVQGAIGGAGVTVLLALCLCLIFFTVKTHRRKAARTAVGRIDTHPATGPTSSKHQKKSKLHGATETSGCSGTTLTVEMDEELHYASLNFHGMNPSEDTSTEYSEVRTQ
binder,measurement,setting,value
B1,binding result,[1],no binding
same,binding result,[2],no binding
